Measured values reported in the supplement of paper PMC12042874.
± gives the uncertainty stated by the source.

experiment: amyloid nucleation score (Sup35N fusion, yeast selection) (log enrichment); library NNK1; higher = more nucleation; inactive = no reads after selection
Outline: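 The nucleation score, computed with DiMSum, is the log enrichment of output over input reads, centred on the mode score of non-aggregating sequences. Sequences with under 100 input reads were dropped. Reads were generated by Illumina sequencing of plasmid inserts from psi-negative yeast with Sup35N fused to peptides of 20 random codons, induced with 100 μM copper sulfate for 24 hours and grown 7 days at 30°C on medium lacking adenine and uracil.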

Substance | amyloid nucleation score
VDVYFTSAMLSRLGLVGAVA | 0.862 ± 0.64
VVCRPTWRWGLKEIYE | -0.133 ± 0.83
IVLGYFRGIHFLGVLGMLIK | inactive
YYVKISLGGSLNNLWKRDWW | 3.54 ± 0.1
KVKANILVFLTKLSMRPTKP | 1.86 ± 0.29
WGAYTLKVGVDLIP | 0.195 ± 0.57
INSRAIRLAKGDSVSWSSHG | -0.244 ± 0.32
YTHDIRSVGGLQESGLGVWV | -0.094 ± 1.1
CKVLCYIAYTWNLDCTEFEG | 6.449 ± 0.063
FKGQSVCFDLVGWFEVLCQG | -0.381 ± 0.85
IVNVSCITNVDGGSLADSAV | 2.48 ± 0.25
RALSVRSRQLG | 0.135 ± 0.97
LPDVKCVLLLMLHLEASRSA | -0.21 ± 0.58
CKSGDLSECCRIWHRWA | 0.048 ± 0.27
VNLFVLYPIYLFGSCSHNLM | 7.373 ± 0.053
VGNMRYL | -0.332 ± 0.5
LLCDWDGQ | 0.497 ± 0.43
RSHGNGSGSRTVAF | -0.1 ± 0.49
EAGQLLL | inactive
QDLPAISLFTDVQSKPRTFP | 0.631 ± 0.95
VFVSCIILRRYFYMFLVGPF | 0.752 ± 0.45
NLCSFFMFTIILGGNVGTFM | 7.208 ± 0.044
LDHGEFTKYFRLTRCVSTCC | -0.339 ± 0.97
QMRSVYVQDTINMALIIHEL | 0.617 ± 0.27
EYICLLTDSCNDTVLFSCPR | -0.583 ± 0.83

Substance | amyloid nucleation score
TTSYHTNGRAVRIVYPFANS | -0.096 ± 0.6
ACLSNGKWKYPLGYESSLRR | -0.968 ± 1.1
SHATFRVWHTVVVAV | -0.031 ± 0.34
CMYALT | 0.015 ± 0.39
CRSYNYLIVMKDLLPSALKT | 1.23 ± 0.36
GTDPGY | -0.706 ± 0.6
VCTNRYGPCSPS | 4.26 ± 0.09
ASIYCWLLNRHLDDDFLWLS | -0.702 ± 1.9
PYWTVYGELL | 0.116 ± 0.97
GLAASHSTSCSSYMISCWSR | -0.055 ± 0.55
SVLLEGFLSYPDLSTNLIHV | -0.416 ± 0.81
ASCVKYVW | 1.31 ± 0.66
IWRFIFGFGVYVCNGMALSQ | 0.291 ± 0.53
RRNVWASVTGGELWKGDLSR | -0.498 ± 1.1
ADILWARFLWMSEGIH | 0.054 ± 0.23
AVRHLPAPRHSMCLIWYCNC | 0.156 ± 0.37
KGAGMQTTQCVCKVYKLSWA | 0.281 ± 0.24
QLGWYLFGM | 0.729 ± 0.4
SCPVLHAVPNYCAKALLSLR | -0.794 ± 0.64
RCWGRAYMYRPCCISV | -1.06 ± 0.8
RLMRHNMPTVVEHAGSSRSN | -0.132 ± 0.31
DTRTSNNPALFRGFTALRVR | 0.412 ± 0.54
TVNTYSANDYVRTMVCELSV | inactive
FMTEWSVTFMRMYMAYLGSV | 0.424 ± 0.29
PLGGLGYV | 0.543 ± 0.73

Substance | amyloid nucleation score
NPNTKYINCPHRVAFRGKLM | 0.552 ± 0.74
LTSWLDYDDISEWHRSDGFR | 0.987 ± 0.57
ISSILFLQCLSWGGNR | 5.38 ± 0.095
PLEVWNRGVGPIGCVCRGLK | 1.29 ± 0.57
WAWYLCSPESANFHNLHRLW | 0.324 ± 1.1
VYLVGASWPADVDEFGGRKD | -0.402 ± 0.54
VCVHDLCSLIQLGAYVMRET | 0.383 ± 0.29
NHIQRVSTFVLAMSYYVRTV | -0.236 ± 1.2
CSDCARIGLMSRCGDETW | 0.132 ± 0.28
LFNLFSRL | 0.335 ± 0.51
IKRKG | 0.326 ± 0.46
YLVILKITGGSDVPTDQMVW | -0.88 ± 0.32
TIDERDSAHKSSVFKGLKEI | -0.447 ± 0.33
WVLKL | 0.916 ± 0.54
RLMTDHINSTVTSMGKGRIT | -0.026 ± 0.22
NDRCFIGPWRSSRPGDFSGH | -0.043 ± 1.4
DSGDEGVIVSVSHGWTSEGL | 0.443 ± 0.81
STMRLPWPGFRVHSL | 0.901 ± 0.65
PTCQGITWMPRQLWLMGGAD | 0.507 ± 0.6
MPLYLVCDFLNYGFVISVSS | 4.42 ± 0.095
SGRGWEAYIYCWVRLVRLVW | -0.463 ± 0.35
FCNWAL | -0.18 ± 0.5
LYRFWCYALST | inactive
YPSVLRINTTFASDLTG | 0.894 ± 0.3
AFVEGRMNHPYSGTMLSRRG | 0.418 ± 0.53

Substance | amyloid nucleation score
LGRSGKMTT | -0.032 ± 0.54
WANRVCMCLRTSFYHL | 0.004 ± 0.62
YPTSCVYMCQQAKPFLVLIL | -0.655 ± 0.6
GCVSVPYQLPPLISYGLVN | -0.123 ± 0.62
KCIQGTGSLWD | -0.128 ± 0.3
RSVCIVF | 0.105 ± 0.43
VFWVNFLFYYGSLLHSKGV | -1.05 ± 1
VSRVDCDNFGLRSRVSAL | 0.503 ± 0.37
RCYIDYSVEFRLHMIKMKTR | -0.227 ± 0.65
LQAKMTIGAFFISYSSMYPG | 2.74 ± 0.08
MASTMPC | -0.654 ± 1
LNAKFIVKW | 0.588 ± 0.21
IENPVLRCSLYYPSRPIRRL | -0.344 ± 0.58
EYRFVN | -0.227 ± 0.28
HCLAGNLDLAMVRVRSPTCL | 0.032 ± 0.59
INALYRFGWKARFSMSC | 0.282 ± 0.45
FSALYPGREISA | 1.51 ± 0.84
RLWGYCMHSLVFDTNIWHPL | 0.461 ± 0.32
WSVVLDFTVDLVHFGPVGRC | 0.242 ± 0.36
CDSYSKMPPGRNILVCQFCW | 2.15 ± 0.11
GTMKWALYSDYLSSTFTIYH | 0.137 ± 0.26
DKWRVRCCRFWLT | 0.191 ± 0.29
SSYAHAVRTQDFKLASGHYV | -0.7 ± 0.88
KYKVVI | -0.289 ± 0.24
RYICVTFISLGELPFYWWFT | -1.55 ± 0.83

Substance | amyloid nucleation score
FFWNRWRRTQRANTMLMMRM | 0.402 ± 0.68
FNLITSD | 0.074 ± 0.52
DSLSNLCDFCSSK | 0.668 ± 0.5
LLMLGLLSQH | 0.427 ± 0.28
HSLRQKVPM | 0.227 ± 0.3
NSLMFRPWTLGDF | -0.434 ± 1.7
WSKCVCHLPR | -0.897 ± 1.6
QHRVCLHCYKM | -1.63 ± 2.7
CVAWNIDW | 0.069 ± 0.76
YVDVSSS | 0.834 ± 0.61
CGCETDMGSA | inactive
VEGRVSEFGRLHMSCYTGLR | -0.076 ± 0.48
VRYSL | -0.42 ± 0.35
FLIEMCYV | -0.484 ± 0.88
TNILVAYRVISNGSTTPPRR | 3.56 ± 0.15
EDSMNNL | -0.127 ± 0.84
KWVWDLMMVDSGLRLSSHVL | 0.026 ± 0.35
DAHAISINHYRLSQTLSVPW | -0.148 ± 0.35
HEGGQWLRKLTGPLGLRFMR | 0.216 ± 0.48
PVCVIRRGMAFSAFGWVPLE | 0.188 ± 0.7
VGLTARHKCWVGTCRGGPRT | -0.711 ± 1.3
WKMNGPFDFDPRRMISHDLK | -0.158 ± 0.42
TVKDNHVLEEFVTFYVVYKS | -0.013 ± 0.27
QLIHMMFYIRFMWDLGHRSL | 0.814 ± 0.36
FQSECSCIPKAWSVFMGTAG | -0.476 ± 0.58

Substance | amyloid nucleation score
FHSLRLRLMRNYG | -0.31 ± 1.4
VRSFGWTEFKCVTFFQEWIS | -0.029 ± 0.44
YFRCKFDRASIQHLIASRAH | 3.18 ± 0.19
FFILRNQRPIC | 1.76 ± 0.2
GKLSSLLMFCRNSLFVGFLG | -0.086 ± 0.35
YQNFPVKLITQKCLCWIDRC | 0.216 ± 0.31
YLWMFCYMYREVAIRVNVGG | 0.1 ± 0.34
IACSARMFYDS | 0.399 ± 0.47
RMAPMMDP | -0.227 ± 1.1
HSTTLPLLWAYILYPAFG | -0.267 ± 0.37
RSFLMPDE | 0.307 ± 0.46
LNHCVNMLRGRCGVPLLSVV | 0.551 ± 1.1
SFRIVLLPPF | 2.64 ± 0.26
RGSQGLVNLYIAFPMECLGI | 3.73 ± 0.087
WRLFIWDRGSLWFEISYYFR | -0.164 ± 0.3
PGTGPVCQNGDVAF | -0.948 ± 1.7
FVLDNRKFYVCFVGYRFGLF | 4.83 ± 0.051
QLSYLTFFCFVP | 7.183 ± 0.052
NTDLTNRSDYLYIV | -1.78 ± 1.2
ILHYWVAVSMAQWICIGLKK | 0.194 ± 0.45
GMSGGWPIYKLGSS | 1.05 ± 0.25
KRMVCDVCIDVMPSEFKQAG | 1.02 ± 0.76
YCWCINNH | 6.26 ± 0.084
GNFGWHSLSYRDNYICSWAL | 4.43 ± 0.068
YIIWVYCVRMNSLHELLAMS | 0.684 ± 0.8

Substance | amyloid nucleation score
DWFSGLNRPRCIKLAQGGTG | 0.441 ± 0.38
LPKMWYIDLFVSGVY | 0.241 ± 0.48
RTCHSQICFSGRMYRLFVMI | 0.41 ± 0.48
SYGNVWYIMYHRLKDTGWYM | 1.4 ± 0.43
MTSLFLCKVTRM | 0.23 ± 0.6
STWFSFTFLWLMSRGVNQNF | 1.56 ± 0.36
VIAFCSRPDC | 0.425 ± 0.52
LHLAAMM | -0.344 ± 1.1
FTVVISSLNEGEEHRVWCKF | -0.444 ± 1.2
SELEIA | inactive
AFIKNLTLCLDWTHSGAVYM | 7.24 ± 0.08
MPDYVVGYHGGWSCNLILRF | 2.54 ± 0.19
NLQVVYMSLV | 2.99 ± 0.14
GRTSCLKRGISKEASLTGS | 1.25 ± 0.53
TKLSPFNIGLRCRYHNLALN | -1.52 ± 0.45
NICWFGVSRLQKMEGLWTGA | 0.515 ± 0.67
DDVVWNYSTA | -0.487 ± 0.58
FFMIRRMLVTGWARQCIPRY | -0.105 ± 0.75
LNHNIFVFFLQIIQTHDIWF | 4.87 ± 0.09
FVLERTGIRLLCL | 0.363 ± 0.38
TWWCV | -0.285 ± 0.27
MHISCNTDSSYTFGRNALK | 0.341 ± 0.74
CLYICIMGRIDAISSHSQII | 0.453 ± 0.43
GQSKLVLHFAILTVVAWPFD | 0.385 ± 0.51
